According to patent publication US7629323B2, “Manipulation of neuronal ion channels” (Northwestern University, priority 2003, dated 2009):

How the values were obtained:
[1] = target: T1, homomeric Kv3.4 channels (Rattus norvegicus, UniProt Q63734); conditions: low micromolar concentrations; cited from earlier work
T1 sequence (Q63734 1-625): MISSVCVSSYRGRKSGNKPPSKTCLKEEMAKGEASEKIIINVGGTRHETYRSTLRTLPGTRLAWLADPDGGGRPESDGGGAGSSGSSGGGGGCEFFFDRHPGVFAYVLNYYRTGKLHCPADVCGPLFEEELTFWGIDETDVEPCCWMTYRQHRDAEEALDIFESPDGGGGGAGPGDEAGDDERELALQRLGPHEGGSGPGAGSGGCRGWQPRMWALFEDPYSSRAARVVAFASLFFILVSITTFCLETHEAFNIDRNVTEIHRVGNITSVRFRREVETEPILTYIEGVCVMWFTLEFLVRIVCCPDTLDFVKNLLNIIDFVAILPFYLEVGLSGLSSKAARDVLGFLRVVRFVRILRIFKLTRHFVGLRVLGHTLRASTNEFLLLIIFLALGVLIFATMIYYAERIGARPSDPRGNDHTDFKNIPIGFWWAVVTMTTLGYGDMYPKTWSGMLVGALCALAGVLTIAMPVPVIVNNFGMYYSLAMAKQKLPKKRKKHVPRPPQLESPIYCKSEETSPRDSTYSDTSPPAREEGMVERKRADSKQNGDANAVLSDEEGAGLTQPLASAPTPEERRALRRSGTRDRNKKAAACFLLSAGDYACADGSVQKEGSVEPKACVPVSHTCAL

[2] = system: Inward rectifier K+ channels; conditions: cited from earlier work
[3] = target: T2, Kv3.4a/Kv3.1b heteromeric channels (Rattus norvegicus, UniProt P25122+Q63734); format: cell-based; conditions: HEK293 cells, n=4
T2 construct: expressed in transfected cells; host or cells: HEK293
T2 sequence (Q63734 1-625): T1 sequence (Q63734 1-625)
T2 sequence (P25122 1-585): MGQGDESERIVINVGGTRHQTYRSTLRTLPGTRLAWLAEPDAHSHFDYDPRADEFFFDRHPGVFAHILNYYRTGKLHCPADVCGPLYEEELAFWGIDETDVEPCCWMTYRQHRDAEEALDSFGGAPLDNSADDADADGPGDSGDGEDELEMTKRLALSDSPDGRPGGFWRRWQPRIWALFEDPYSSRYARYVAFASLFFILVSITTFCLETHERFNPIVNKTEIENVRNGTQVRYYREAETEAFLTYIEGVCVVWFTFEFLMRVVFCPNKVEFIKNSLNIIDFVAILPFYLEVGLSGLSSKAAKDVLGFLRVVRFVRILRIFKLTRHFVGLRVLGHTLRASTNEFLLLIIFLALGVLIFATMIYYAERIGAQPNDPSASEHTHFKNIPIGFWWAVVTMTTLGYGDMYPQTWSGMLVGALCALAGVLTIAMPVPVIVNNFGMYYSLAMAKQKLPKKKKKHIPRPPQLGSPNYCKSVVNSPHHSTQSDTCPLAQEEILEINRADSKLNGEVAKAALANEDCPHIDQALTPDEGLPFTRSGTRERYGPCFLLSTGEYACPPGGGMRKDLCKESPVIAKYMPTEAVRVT
From the text: Electrophysiology. Whole-cell recordings used standard techniques^27,28. The internal solution consisted of (in mM): 30-90 K2SO4, 0-60 N-methyl-D-glucamine, 2 MgCl2, 40 HEPES, 5 EGTA, 12 phosphocreatine, 2 Na2ATP, 0.2 Na3GTP, and 0.1 leupeptin, pH 7.2 with H2SO4 (osmolarity 260-270 mOsm/l). The external solution consisted of (in mM): 140 Na-isethionate, 2 KCl, 4 MgCl2, 10 HEPES, 12 glucose and 0.001 TTX, pH 7.35 with NaOH (osmolarity 295-305 mOsm/l). The internal solution for current clamp recordings consisted of (in mM) 110 potassium methylsulphate, 2 MgCl2, 40 HEPES, 5 EGTA, 12 phosphocreatine, 2 Na2ATP, 0.2 Na3GTP, and 0.1 leupeptin, pH 7.2 with H2SO4 (osmolarity 260-270 mOsm/l). In the case of current clamp recordings, TTX was omitted from external solution. For the recordings in the presence of Ca^+2 ions EGTA was omitted from internal solution and 4 mM of MgCl2 was substituted by 2 mM of CaCl2 and 2 mM of MgCl2. […] Recordings were obtained with Axon Instruments 200 patch-clamp amplifier and controlled and monitored with a PC running pClamp software (version 7.0) (Axon Instruments Inc., Union City, Calif.). […] After seal rupture, series resistance (2-10 MΩ) was compensated (75-90%) and periodically monitored. […]
Single cell RT-PCR (scRT-PCR). […] In the case of co-transfection with Kv3.4a and Kv3.1b cDNA, single cell RT-PCR was used to confirm the presence of both mRNAs in the recorded cell. […]

## BDS-I (AAPCFCSGKPGRGDLWILRGTCPGGYGYTSNCYKWPNICCYPH)
[1]
  block of homomeric Kv3.4 channels: blocks
[2]
  sensitivity of inward rectifier K+ channels: insensitive
[3]
  block of Kv3.4a/Kv3.1b heteromeric channels: strong at the beginning of a depolarizing step and then waned with maintained depolarization
